Results published in PMC314469, “Protein Interaction Networks by Proteome Peptide Scanning” (PLoS Biology, 2004).

How the values were obtained:
[1] = biological target: endophilin SH3 (SH3G2_HUMAN), Q99962; assay: SPOT array
[2] = biological target: T1, amphyphisin SH3 (AMPH_HUMAN), P49418; assay: SPOT array
T1 chain: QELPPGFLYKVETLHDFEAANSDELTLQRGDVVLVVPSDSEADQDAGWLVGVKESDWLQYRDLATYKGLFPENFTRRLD

| Binder | normalised SPOT signal, Boehringer light units (BLU); mean over the file's lines of this peptide [1] | normalised SPOT signal, Boehringer light units (BLU); mean over the file's lines of this peptide [2] |
| --- | --- | --- |
| GLLLLPRPGRPLDL [P13497 12-25] | 88.4 | 97.6 |
| GKVVPLRPPPPPKS [Q9UHN6 29-43] | 9090 | 499 |
| GKPNPRRPKDKMSA [O95985 843-856] | 87.3 | 13.6 |
| GLSGLKRPSSSAST [Q9P2Q0 476-489] | 34.9 | 32.5 |
| GPSPPYRPEKLSSP [Q13495 380-393] | 684 | 243 |
| ALKQLDRPEKGLSE [O14646 1427-1440] | 295 | 42.4 |
| GNAGPRRPPGDPST [Q9C095 222-236] | 75.8 | 37.1 |
| GPGKPERPPPQGGD [P81489 112-126] | 193 | 33.9 |
| GLGSPERPPKTSPG [Q9H6F5 54-68] | 508 | 122 |
| GLRRPEKPPYSYIA [Q12947 93-107] | 285 | 34.9 |
| GKSHPKRPNSQSQH [Q9H6W1 84-97] | 0 | 45.5 |
| GLGELLRPYRSASS [Q14526 480-493] | 112 | 367 |
| GLWLPRRPARSVGS [Q9H427 273-286] | 1850 | 8350 |
| GNLDIQRPKRKRKN [Q12972 185-198] | 48.7 | 2140 |
| GPAGPKRPVFILGE [O60307 800-813] | 259 | 9.6 |
| GNDDPRRPSRSPPS [O15085 1403-1416] | 306 | 2210 |
| GLLSLRRPAPRRLE [Q9HCE9 329-342] | 504 | 13.3 |
| GLPAPLRPERLAPV [O94850 125-138] | 1890 | 2410 |
| GLEVPRRPGARTGP [Q9P1Z1 1-14] | 626 | 29.7 |
| GPPPPPRPPFGRPP [O14776 57-71] | 5310 | 1370 |
| GPAPLRRPDSSDDR [Q9Y687 56-69] | 45.8 | 46.8 |

| Binder | normalised SPOT signal, Boehringer light units (BLU); mean over the file's lines of this peptide [1] | normalised SPOT signal, Boehringer light units (BLU); mean over the file's lines of this peptide [2] |
| --- | --- | --- |
| GLGGPQKPPPHTEP [Q9H4M7 492-506] | 79.9 | 40.1 |
| GPPSPRRPLVPAGP [O00268 106-119] | 2840 | 20.9 |
| GPAPPPRPPQLERH [BAC05410 275-289] | 10700 | 1000 |
| GPQRPRRPAKDAQP [Q12984 78-91] | 10700 | 8400 |
| GKRPIKRPAYWRTE [Q9HAH2 675-688] | 12.8 | 3.7 |
| GMEKIWRPNRVFSL [O60795 134-147] | 175 | 1120 |
| GPERPKRPGSLLAP [Q9HCE9 774-787] | 12300 | 2440 |
| GKNRPLRPSRRRQL [Q9H5Z2 504-517] | 1860 | 7430 |
| GNANIQRPSRKSVN [Q9NRA6 251-264] | 166 | 3260 |
| GPRPPPRPARHRSH [Q9P0U7 35-48] | 28600 | 13100 |
| ALSHFRRPDVSVQG [Q06265 140-153] | 50.3 | 19.7 |
| GLSTLQRPLKDVTD [Q9H4V5 197-210] | 90.7 | 108 |
| GPLDLRRPMRTVPG [Q96SD2 167-180] | 972 | 1070 |
| GNIELKRPLIKAPS [Q9BW19 13-26] | 28.8 | 25.9 |
| GPILPKKPPVKPPT [Q9ULW0 414-428] | 1800 | 44.6 |
| AAMHPRRPDGFDGL [Q04197 18-31] | 14.1 | 53.6 |
| GPAGLRRPPDKQPS [Q96CI4 37-50] | 383 | 27.8 |
| GPLGLRRPPSASSD [Q01167 591-604] | 116 | 11.4 |
| GLSGPSRPPPPPQA [Q9UEE5 25-39] | 2950 | 78.2 |
| ALLDPRRPEIPTEQ [Q9NUC1 730-743] | 36.9 | 26.1 |
| ALHVPAKPPRAAAA [Q8WXD9 1334-1348] | 526 | 4080 |
